# Laboratory results from patent US20130251724A1 (GlaxoSmithKline, published 2013).
# “And” between values parts separate entries of the source, which are not always exact repeats. Equal values may be shown once. Read-outs that look alike come from different tables or passages of the source.
# T1: Human OSM (human, UniProt P13725 26-221)
# T1 construct: Recombinant human OSM; also called hOSM; human Oncostatin M
# T1 sequence: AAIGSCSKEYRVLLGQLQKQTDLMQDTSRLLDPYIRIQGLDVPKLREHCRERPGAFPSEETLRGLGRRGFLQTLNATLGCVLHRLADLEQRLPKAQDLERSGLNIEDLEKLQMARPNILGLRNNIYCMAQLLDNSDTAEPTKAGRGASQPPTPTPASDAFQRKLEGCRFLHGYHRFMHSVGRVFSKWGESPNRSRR
# T2: Cynomolgus OSM (cynomolgus, UniProt A0A2K5VPC6 26-221)
# T2 sequence: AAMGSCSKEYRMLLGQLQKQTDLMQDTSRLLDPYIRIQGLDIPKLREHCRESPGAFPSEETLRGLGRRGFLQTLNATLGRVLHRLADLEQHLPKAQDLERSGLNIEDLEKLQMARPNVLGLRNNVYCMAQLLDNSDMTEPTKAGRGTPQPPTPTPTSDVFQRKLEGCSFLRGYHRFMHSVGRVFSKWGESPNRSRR
# Experiments:
# Human OSM [1] = target: T1, Human OSM; assay: SPR (ProteOn XPR36 or Biacore T100), captured supernatant, OSM as analyte; hatched cell: separate experiment
# Procedure: The initial kinetic analyses for the CDRH3 screen were carried out on the ProteOn XPR36 (Biorad Laboratories) and certain supernatants were selected for more accurate kinetic analysis on the BiaCore T100.
# For the ProteOn analysis, anti-human IgG (GE Healthcare/Biacore BR-1008-39) was coupled to a GLM chip (Biorad Laboratories 176-5012) by primary amine coupling. The CDRH3 variants were captured directly on to this surface and recombinant human OSM was passed over the captured antibody surface at 256, 64, 16, 4 and 1 nM, with a buffer injection alone (i.e. 0 nM) used to double reference the binding curves. Following the OSM binding event, the capture surfaces were regenerated: with 3M MgCl₂ the regeneration removed the previously captured antibody ready for another cycle of capture and binding analysis. The data was then fitted to the 1:1 model (with mass transport) inherent to the ProteOn analysis software. The run was carried out using HBS-EP (Biacore/GE-Healthcare BR-1006-69) and the analysis temperature was 25° C.
# A similar method was used for analysis of constructs using the Biacore T100, anti-human IgG (GE Healthcare/Biacore BR-1008-39) was coupled to a CM5 chip (GE Healthcare/Biacore BR-1006-68) by primary amine coupling, antibodies were captured on this surface and recombinant human OSM was passed over the captured antibody surface at 256, 64, 16, 4 and 1 nM, with a buffer injection alone (i.e. 0 nM) used to double reference the binding curves. Regeneration was by using pulses of 3M 3M MgCl₂ or 100 mM phosphoric acid or using both reagents. The data was fitted to the 1:1 model inherent to the Biacore T100 analysis software. The run was carried out using HBS-EP (Biacore/GE-Healthcare BR-1006-69) and the analysis temperature was 25° C.
# Human OSM [2] = target: T1, Human OSM; assay: cell-based or functional assay
# Cynomolgus OSM [3] = target: T2, Cynomolgus OSM; assay: cell-based or functional assay
# Human OSM [4] = target: T1, Human OSM; assay: BIAcore kinetics, purified antibody
# Cynomolgus OSM [5] = target: T2, Cynomolgus OSM; assay: BIAcore kinetics, purified antibody
# Human OSM [6] = target: T1, Human OSM; assay: BIAcore kinetics, transfection supernatant
# Human OSM [7] = target: T1, Human OSM; assay: cell-based or functional assay; remark: listed apart in the source
# Cynomolgus OSM [8] = target: T2, Cynomolgus OSM; assay: cell-based or functional assay; remark: listed apart in the source
# Human OSM [9] = target: T1, Human OSM; assay: BIAcore kinetics, transfection supernatant; remark: listed apart in the source
# Cynomolgus OSM [10] = target: T2, Cynomolgus OSM; assay: BIAcore kinetics, transfection supernatant
Kd (Human OSM [1]),"KB cell neutralisation assay, mean IC50 (Human OSM [2])","KB cell neutralisation assay, mean IC50 (Cynomolgus OSM [3])",Kd (Human OSM [4]),koff (Human OSM [4]),kon (Human OSM [4]),Kd (Cynomolgus OSM [5]),koff (Cynomolgus OSM [5]),kon (Cynomolgus OSM [5]),Kd (Human OSM [6]),koff (Human OSM [6]),kon (Human OSM [6]),Binder,further results
6.93 nM,,,,,,,,,,,,"Pos 98 Met (antibody, V domains shown, also called CDRH3 H98>M) VH: EVQLVESGGGLVQPGGSLRLSCAASGFTFSSYAMSWVRQAPGKGLEWVATISDGGSFTYYLDNVRGRFTISRDNAKNSLYLQMNSLRAEDTAVYYCARDVGMTTFWYFDVWGRGTLVTVSS VL: DIVMTQSPDSLAVSLGERATINCRASKSVSAAGYNFMHWYQQKPGQPPKVLIYYASNLESGVPDRFSGSGSGTDFTLTISSLQAEDVAVYYCLHSREFPFTFGGGTKVEIKR",
,0.013 µg/ml and 83 pM,0.01 µg/ml and 67 pM,0.443 nM,0.000166 s⁻¹,375000 M⁻¹ s⁻¹,0.258 nM,0.00011 s⁻¹,428000 M⁻¹ s⁻¹,0.25 nM,9.99e-05 s⁻¹,400000 M⁻¹ s⁻¹,"Humanised 10G8 H1L1 (antibody, V domains shown) VH: EMQLVESGGGLVQPGGSLRLSCAASGFTFSNYAMSWVRQAPGKGLEWVATISDGGSFTYYLDNVRGRFTISRDNAKNSLYLQMNSLRAEDTAVYYCARDVGHTTFWYFDVWGRGTLVTVSS VL: DIVMTQSPDSLAVSLGERATINCRASKSVSAAGYNFMHWYQQKPGQPPKVLIYYASNLESGVPDRFSGSGSGTDFTLTISSLQAEDVAVYYCLHSREFPFTFGGGTKVEIK",
,0.014 µg/ml and 93 pM,0.013 µg/ml and 14 pM,0.365 nM,0.00014 s⁻¹,383000 M⁻¹ s⁻¹,0.299 nM,0.000124 s⁻¹,414000 M⁻¹ s⁻¹,0.286 nM,0.000113 s⁻¹,394000 M⁻¹ s⁻¹,"Humanised 10G8 H2L1 (antibody, V domains shown) VH: EVQLVESGGGLVQPGGSLRLSCAASGFTFSNYAMSWVRQAPGKGLEWVATISDGGSFTYYLDNVRGRFTISRDNAKNSLYLQMNSLRAEDTAVYYCARDVGHTTFWYFDVWGSGTLVTVSS VL: DIVMTQSPDSLAVSLGERATINCRASKSVSAAGYNFMHWYQQKPGQPPKVLIYYASNLESGVPDRFSGSGSGTDFTLTISSLQAEDVAVYYCLHSREFPFTFGGGTKVEIK",
,0.018 µg/ml and 118 pM,0.012 µg/ml and 49 pM,0.374 nM,0.00014 s⁻¹,374000 M⁻¹ s⁻¹,0.242 nM,0.000101 s⁻¹,418000 M⁻¹ s⁻¹,0.268 nM,0.000111 s⁻¹,413000 M⁻¹ s⁻¹,"Humanised 10G8 H0L4 (antibody, V domains shown) VH: EVQLVESGGGLVQPGGSLRLSCAASGFTFSNYAMSWVRQAPGKGLEWVATISDGGSFTYYLDNVRGRFTISRDNAKNSLYLQMNSLRAEDTAVYYCARDVGHTTFWYFDVWGRGTLVTVSS VL: DIVMTQSPDSLAVSLGERATINCRASKSVSAAGYNFMHWYQQKPGQPPKVLIYYASNLESGVPDRFSGSGSGTDFTLTISSLQAEDVVVYYCLHSREFPFTFGGGTNVEIK",
1.62 nM,,,,,,,,,,,,"Pos 99 Met (antibody, V domains shown, also called CDRH3 T99>M) VH: EVQLVESGGGLVQPGGSLRLSCAASGFTFSSYAMSWVRQAPGKGLEWVATISDGGSFTYYLDNVRGRFTISRDNAKNSLYLQMNSLRAEDTAVYYCARDVGHMTFWYFDVWGRGTLVTVSS VL: DIVMTQSPDSLAVSLGERATINCRASKSVSAAGYNFMHWYQQKPGQPPKVLIYYASNLESGVPDRFSGSGSGTDFTLTISSLQAEDVAVYYCLHSREFPFTFGGGTKVEIKR",
,,,,,,,,,,,,"Humanised 10G8 H0(IGHV3-23)L1(IGK4-1) (antibody, V domains shown, built from the stated exchange of CDRL2; residue limits derived by me; also called H0 IGHV3_23 + L1 IGKV4_1; H0(huCDRH1)L1(huCDRL2)) VH: EVQLVESGGGLVQPGGSLRLSCAASGFTFSSYAMSWVRQAPGKGLEWVATISDGGSFTYYLDNVRGRFTISRDNAKNSLYLQMNSLRAEDTAVYYCARDVGHTTFWYFDVWGRGTLVTVSS VL: DIVMTQSPDSLAVSLGERATINCRASKSVSAAGYNFMHWYQQKPGQPPKVLIYWASTRESGVPDRFSGSGSGTDFTLTISSLQAEDVAVYYCLHSREFPFTFGGGTKVEIK","KB cell neutralisation assay, mean IC50 (Human OSM [7]): 0.077 µg/ml and 513 pM; KB cell neutralisation assay, mean IC50 (Cynomolgus OSM [8]): 0.114 µg/ml and 760 pM; Kd (Human OSM [9]): 1.56 nM; koff (Human OSM [9]): 0.000247 s⁻¹; kon (Human OSM [9]): 159000 M⁻¹ s⁻¹; Kd (Cynomolgus OSM [10]): 1.47 nM; koff (Cynomolgus OSM [10]): 0.000223 s⁻¹; kon (Cynomolgus OSM [10]): 152000 M⁻¹ s⁻¹"
,,,,,,,,,,,,"Humanised 10G8 H0L1(IGKV4-1) (antibody, V domains shown, built from the stated exchange of CDRL2; residue limits derived by me; Human gamma 1/kappa constant regions; also called H0L1(huCDRL2)) VH: EVQLVESGGGLVQPGGSLRLSCAASGFTFSNYAMSWVRQAPGKGLEWVATISDGGSFTYYLDNVRGRFTISRDNAKNSLYLQMNSLRAEDTAVYYCARDVGHTTFWYFDVWGRGTLVTVSS VL: DIVMTQSPDSLAVSLGERATINCRASKSVSAAGYNFMHWYQQKPGQPPKVLIYWASTRESGVPDRFSGSGSGTDFTLTISSLQAEDVAVYYCLHSREFPFTFGGGTKVEIK","KB cell neutralisation assay, mean IC50 (Human OSM [7]): 0.054 µg/ml and 360 pM; KB cell neutralisation assay, mean IC50 (Cynomolgus OSM [8]): 0.081 µg/ml and 540 pM; Kd (Human OSM [9]): 1.37 nM; koff (Human OSM [9]): 0.000221 s⁻¹; kon (Human OSM [9]): 161000 M⁻¹ s⁻¹; Kd (Cynomolgus OSM [10]): 1.41 nM; koff (Cynomolgus OSM [10]): 0.000212 s⁻¹; kon (Cynomolgus OSM [10]): 150000 M⁻¹ s⁻¹"
40.3 nM,,,,,,,,,,,,"Pos 100B Met (antibody, V domains shown, also called CDRH3 W100B>M) VH: EVQLVESGGGLVQPGGSLRLSCAASGFTFSSYAMSWVRQAPGKGLEWVATISDGGSFTYYLDNVRGRFTISRDNAKNSLYLQMNSLRAEDTAVYYCARDVGHTTFMYFDVWGRGTLVTVSS VL: DIVMTQSPDSLAVSLGERATINCRASKSVSAAGYNFMHWYQQKPGQPPKVLIYYASNLESGVPDRFSGSGSGTDFTLTISSLQAEDVAVYYCLHSREFPFTFGGGTKVEIKR",
36.2 nM,,,,,,,,,,,,"Pos 100B His (antibody, V domains shown, also called CDRH3 W100B>H) VH: EVQLVESGGGLVQPGGSLRLSCAASGFTFSSYAMSWVRQAPGKGLEWVATISDGGSFTYYLDNVRGRFTISRDNAKNSLYLQMNSLRAEDTAVYYCARDVGHTTFHYFDVWGRGTLVTVSS VL: DIVMTQSPDSLAVSLGERATINCRASKSVSAAGYNFMHWYQQKPGQPPKVLIYYASNLESGVPDRFSGSGSGTDFTLTISSLQAEDVAVYYCLHSREFPFTFGGGTKVEIKR",
,0.016 µg/ml and 107 pM,0.011 µg/ml and 10 pM,0.37 nM,0.000135 s⁻¹,365000 M⁻¹ s⁻¹,0.264 nM,0.000111 s⁻¹,421000 M⁻¹ s⁻¹,0.344 nM,0.00013 s⁻¹,377000 M⁻¹ s⁻¹,"Humanised 10G8 H1L4 (antibody, V domains shown) VH: EMQLVESGGGLVQPGGSLRLSCAASGFTFSNYAMSWVRQAPGKGLEWVATISDGGSFTYYLDNVRGRFTISRDNAKNSLYLQMNSLRAEDTAVYYCARDVGHTTFWYFDVWGRGTLVTVSS VL: DIVMTQSPDSLAVSLGERATINCRASKSVSAAGYNFMHWYQQKPGQPPKVLIYYASNLESGVPDRFSGSGSGTDFTLTISSLQAEDVVVYYCLHSREFPFTFGGGTNVEIK",
,0.022 µg/ml and 147 pM,0.016 µg/ml and 58 pM,0.356 nM,0.000135 s⁻¹,380000 M⁻¹ s⁻¹,0.205 nM,9.01e-05 s⁻¹,441000 M⁻¹ s⁻¹,0.226 nM,0.000101 s⁻¹,448000 M⁻¹ s⁻¹,"Humanised 10G8 H2L4 (antibody, V domains shown) VH: EVQLVESGGGLVQPGGSLRLSCAASGFTFSNYAMSWVRQAPGKGLEWVATISDGGSFTYYLDNVRGRFTISRDNAKNSLYLQMNSLRAEDTAVYYCARDVGHTTFWYFDVWGSGTLVTVSS VL: DIVMTQSPDSLAVSLGERATINCRASKSVSAAGYNFMHWYQQKPGQPPKVLIYYASNLESGVPDRFSGSGSGTDFTLTISSLQAEDVVVYYCLHSREFPFTFGGGTNVEIK",
15.6 nM,,,,,,,,,,,,"Pos 99 His (antibody, V domains shown, also called CDRH3 T99>H) VH: EVQLVESGGGLVQPGGSLRLSCAASGFTFSSYAMSWVRQAPGKGLEWVATISDGGSFTYYLDNVRGRFTISRDNAKNSLYLQMNSLRAEDTAVYYCARDVGHHTFWYFDVWGRGTLVTVSS VL: DIVMTQSPDSLAVSLGERATINCRASKSVSAAGYNFMHWYQQKPGQPPKVLIYYASNLESGVPDRFSGSGSGTDFTLTISSLQAEDVAVYYCLHSREFPFTFGGGTKVEIKR",
